Data taken from patent US20140248273A1 (published 2014).

Biological target: His-tagged SSL3 (S. aureus strain NCTC 8325), with the pRSETB N-terminal tag carrying the Xpress epitope (Staphylococcus aureus strain NCTC 8325, UniProt Q2G0X7 31-356)
Experiment: ELISA, coated extracellular domain of mouse TLR2 (FIG. 5A)

B1: recombinant extracellular domain of mouse TLR2 (receptor)
chain: QESLSCDASGVCDGRSRSFTSIPSGLTAAMKSLDLSFNKITYIGHGDLRACANLQVLILKSSRINTIEGDAFYSLGSLEHLDLSDNHLSSLSSSWFGPLSSLKYLNLMGNPYQTLGVTSLFPNLTNLQTLRIGNVETFSEIRRIDFAGLTSLNELEIKALSLRNYQSQSLKSIRDIHHLTLHLSESAFLLEIFADILSSVRYLELRDTNLARFQFSPLPVDEVSSPMKKLAFRGSVLTDESFNELLKLLRYILELSEVEFDDCTLNGLGDFNPSESDVVSELGKVETVTIRRLHIPQFYLFYDLSTVYSLLEKVKRITVENSKVFLVPCSFSQHLKSLEFLDLSENLMVEEYLKNSACKGAWPSLQTLVLSQNHLRSMQKTGEILLTLKNLTSLDISRNTFHPMPDSCQWPEKMRFLNLSSTGIRVVKTCIPQTLEVLDVSNNNLDSFSLFLPRLQELYISRNKLKTLPDASLFPVLLVMKIRENAVSTFSKDQLGSFPKLETLEAGDNHFVCSCELLSFTMETPALAQILVDWPDSYLCDSPPRLHGHRLQDARPSVLECHQ
notes: extracellular domain; also called mTLR2
binding result: binds
